The target of test [1] is DnaJ-6His (Salmonella enterica serovar Typhimurium) (UniProt P0A1G7). The experiment in a line: MST.
A further test concerns the target T1, DnaJ C268A (Salmonella enterica serovar Typhimurium, UniProt P0A1G7 1-379, C268A).
T1 sequence (looked up): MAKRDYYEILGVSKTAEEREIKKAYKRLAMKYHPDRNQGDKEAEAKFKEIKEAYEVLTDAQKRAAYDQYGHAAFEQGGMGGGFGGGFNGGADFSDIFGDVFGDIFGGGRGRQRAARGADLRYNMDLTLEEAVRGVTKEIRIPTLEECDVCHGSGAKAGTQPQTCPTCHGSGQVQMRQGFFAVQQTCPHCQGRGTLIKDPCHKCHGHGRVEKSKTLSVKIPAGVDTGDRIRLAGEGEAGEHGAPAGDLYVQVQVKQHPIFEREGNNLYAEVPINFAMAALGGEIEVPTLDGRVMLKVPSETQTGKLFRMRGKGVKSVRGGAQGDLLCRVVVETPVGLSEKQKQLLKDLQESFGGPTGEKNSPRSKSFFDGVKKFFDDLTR
Briefly: pull-down.

This note sets out measurements from paper PMC6294903 (Proceedings of the National Academy of Sciences of the …, 2018).

As usually defined, the Kd is the free concentration of one partner at which half of the binding sites on the other are occupied at equilibrium, for simple one-to-one binding. A high value points to a looser complex.

In test [1], “oxidized DksA (recombinant, GST removed) (from UniProt P0A1G5 1-151) (natural protein)” showed a Kd of 65 nM.

B1: GST-DksA (wild type, pull-down done in the absence of DTT) (natural protein, Salmonella enterica serovar Typhimurium, UniProt P0A1G5 1-151, looked up)
chain: MQEGQNRKTSSLSILAIAGVEPYQEKPGEEYMNEAQLSHFKRILEAWRNQLRDEVDRTVTHMQDEAANFPDPVDRAAQEEEFSLELRNRDRERKLIKKIEKTLKKVEDEDFGYCESCGVEIGIRRLEARPTADLCIDCKTLAEIREKQMAG
For B1, in the test with DnaJ C268A, the binding result is “binds”.
